Laboratory results as given in article doi:10.1101/2021.05.25.445618.

Legend:
[1] = target: C-terminally myc-tagged ClpP2 (ClpP2-2×myc) (L. monocytogenes EGD-e); assay: affinity purification with mass spectrometry
[2] = target: L. monocytogenes ClpP1 of the co-expressed ClpP1/2 preparation (L. monocytogenes); assay: SEC
[3] = target: L. monocytogenes ClpP1, separately overexpressed and purified (ClpP1_(7)) (L. monocytogenes); assay: SEC + other: intact protein mass spectrometry
[4] = target: L. monocytogenes ClpP2, separately overexpressed and purified (ClpP2_(14)) (L. monocytogenes); assay: SEC + other: intact protein mass spectrometry
[5] = target: L. monocytogenes ClpP1, separately overexpressed and purified (ClpP1_(7)) (L. monocytogenes); assay: SEC
[6] = target: L. monocytogenes ClpP2 of the co-expressed ClpP1/2 preparation (L. monocytogenes); assay: SEC

For “ClpP1, endogenous in L. monocytogenes (enzyme)”, which fold enrichment at 42 °C over 20 °C [1] is on record?
The fold enrichment at 42 °C over 20 °C was 6 fold.

How did the stoichiometry N [2] turn out when “L. monocytogenes ClpP1 of the co-expressed ClpP1/2 preparation (enzyme)” was run?
The stoichiometry N was 7.

“L. monocytogenes ClpP1, separately overexpressed and purified (ClpP1_(7)) (enzyme)” was tested. Which stoichiometry N [3] did it give?
The stoichiometry N was 7.

And the percent ClpP1 in the tetradecamer peak [4]?
The percent ClpP1 in the tetradecamer peak was 40 to 44%.

And the stoichiometry N [5]?
The stoichiometry N was 7.

With “L. monocytogenes ClpP2 of the co-expressed ClpP1/2 preparation (enzyme)” as the substance, how does the stoichiometry N [6] read?
Its stoichiometry N is 14.

“L. monocytogenes ClpP2, separately overexpressed and purified (ClpP2_(14)) (enzyme)” was tested. Which stoichiometry N [4] did it give?
The stoichiometry N was 14.
